Values joined by “and” are separate entries in the source; they are usually repeats but may differ in a detail not shown here. Identical values can stand only once.
B1: 10-28 Fab (Fab, V domains shown)
VH: QVQLVESGGGVVQPGRSLRLSCAASGFTFSSYDMHWVRQAPGKGLEWVAVISYDGSSKFYAESVKGRFTISRDNSKNTLYLQMNSLRAEETAVYYCVKDGEQLVPLFDYWGQGTLVTVSS
VL: not shown
B2: 11-11 Fab (Fab, V domains shown)
VH: QVQLQESGPGLVKPSQTLSLTCTVSGGSISSGGYYWSWIRQHPGKGLEWIGYIYYSGSTYYNPSLKSRVTISVDTSKNQFSLKVSSVTAADTAVYYCASSNYYDGSGYNLLESYGMDVWGQGTSVTVSS
VL: QSVLTQPPSVSGAPGQRVTISCTGSSSNIGAGYDVHWYQQLPGTAPKLLIYGNSNRPSGVPDRFSGSRSGTSASLAITGLQAEDEADYYCQSYDSSLSGSWVFGGGTKVTVL
B3: 10-40 Fab (Fab, V domains shown)
VH: QLQLQESGPGLVKPSETLSLTCTVSGGSISSSNFYWGWIRQPPGKGLEWIASITYSGRTFYNPSLKSRVAISVDTSKNQFSLKLSSVTAADTAVYYCARTFPSYYDRSGYHYLNYGMDVWGQGTTVTVSS
VL: NFMLTQPHSMSESPGKTVTISCTRSSGSIASNYVQWYQQRPGSSPTTVIYEDNQRPSGVPDRFSGSIDSSSNSASLTISGLKTEDEADYYCQSYDSSSWVFGGGTKLTVL

Molecular target: S2P-prefusion-stabilized spike protein from SARS-CoV-2 B.1.351 (SARS-CoV-2, B.1.351 (Beta), strain)
Test: cryo-EM structure

Question: B1 was tested. Which “stoichiometry N” value did it give?
Answer: Its value is 3 Fabs per spike.

Question: Which “stoichiometry N” value does the source give for B2 here?
Answer: Its value is 3 Fabs per spike and 2 Fabs per spike.

Question: For B3, which “stoichiometry N” value is on record?
Answer: The value was 3 Fabs per spike.

Molecular target: S2P-prefusion-stabilized spike protein from SARS-CoV-2 WA-1 (SARS-CoV-2, WA-1, UniProt P0DTC2, stabilised)
Test: cryo-EM structure

Question: Does B1 bind?
Answer: Result: binds

Question: Does B2 bind?
Answer: Result: binds

Question: Does B3 bind?
Answer: Result: binds
